Molecular target: the molecule itself
Assay: SEC-MALS

B1: D8 Δ262 construct (amino acids 1–261, lacking Cys 262) (domain or fragment)
chain: MPQQLSPINIETKKAISNARLKPLDIHYNESKPTTIQNTGKLVRINFKGGYISGGFLPNEYVLSSLHIYWGKEDDYGSNHLIDVYKYSGEINLVHWNKKKYSSYEEAKKHDDGLIIISIFLQVLDHKNVYFQKIVNQLDSIRSANTSAPFDSVFYLDNLLPSKLDYFTYLGTTINHSADAVWIIFPTPINIHSDQLSKFRTLLSSSNHDGKPHYITENYRNPYKLNDDTQVYYSGEIIRAATTSPARENYFMRWLSDLRET
- stoichiometry N: 6

Reference: PMC4256255 (PLoS Pathogens, 2014)
